Values quoted from earlier work as cited in patent US7723472B2, “Extracellular matrix binding chimeric proteins and methods of use thereof” (The Regents of the University of California, priority 2005, dated 2010).

Conditions: published value for yCD, Kievit et al. 1999

B1: yCD: Yeast cytosine deaminase (protein, UniProt Q12178 1-158, looked up)
Cytosine deaminase: MVTGGMASKWDQKGMDIAYEEAALGYKEGGVPIGGCLINNKDGSVLGRGHNMRFQKGSATLHGEISTLENCGRLEGKVYKDTTLYTTLSPCDMCTGAIIMYGIPRCVVGENVNFKSKGEKYLQTRGHEVVVVDDERCKKIMKQFIDERPQDWFEDIGE
- Km: 800 µM
- Vmax: 68 μM/min/μg enzyme
